Test results as given in US20140087995A1 (published 2014).
Numbered stars: 1 amine (or outer) side, 2 acyl side, 3 side chain; on linkers, the order of the positions; unused ones are H or OH. Bridge positions count the residues as written; N and C are the ends. Side chains are listed from the residue outwards. Ends that are not written are not given here. * marks the point of attachment. C20 diacid = O=C(O)CCCCCCCCCCCCCCCCCCC(=O)*; γGlu = O=C(O)[C@H](CCC(=O)[*:2])N[*:1]

T1: rat amylin receptor (rat calcitonin receptor + rat RAMP 3) (rat, UniProt P32214 25-516; Q9JJ73 23-147)
T1 construct: whole, on cells; Membranes of transiently transfected BHK tk'ts 13 cells; also called rAmylin-R; rat amylin 3(a) receptor
T1 sequence (looked up) 1: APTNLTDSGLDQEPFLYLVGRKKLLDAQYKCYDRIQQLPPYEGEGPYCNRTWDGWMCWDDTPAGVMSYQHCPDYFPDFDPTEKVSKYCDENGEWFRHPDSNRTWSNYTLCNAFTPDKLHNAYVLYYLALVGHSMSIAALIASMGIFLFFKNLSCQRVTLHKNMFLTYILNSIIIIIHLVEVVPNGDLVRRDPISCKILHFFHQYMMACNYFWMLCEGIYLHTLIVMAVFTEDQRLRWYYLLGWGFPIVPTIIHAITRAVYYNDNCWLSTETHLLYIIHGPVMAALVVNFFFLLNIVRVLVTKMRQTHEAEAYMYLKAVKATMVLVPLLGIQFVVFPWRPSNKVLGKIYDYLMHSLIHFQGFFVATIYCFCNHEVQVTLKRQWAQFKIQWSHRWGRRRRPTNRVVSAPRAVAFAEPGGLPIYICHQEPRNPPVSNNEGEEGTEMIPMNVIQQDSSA
T1 sequence (looked up) 2: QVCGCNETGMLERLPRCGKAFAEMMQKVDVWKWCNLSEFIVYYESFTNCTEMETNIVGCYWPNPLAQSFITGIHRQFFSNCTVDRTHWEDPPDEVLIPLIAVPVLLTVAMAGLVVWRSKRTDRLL

T2: rat calcitonin receptor (rat, UniProt P32214 25-516)
T2 construct: whole, on cells; Membranes of transiently transfected BHK tk'ts 13 cells; also called rCTR; rat calcitonin (a) receptor
T2 sequence (looked up): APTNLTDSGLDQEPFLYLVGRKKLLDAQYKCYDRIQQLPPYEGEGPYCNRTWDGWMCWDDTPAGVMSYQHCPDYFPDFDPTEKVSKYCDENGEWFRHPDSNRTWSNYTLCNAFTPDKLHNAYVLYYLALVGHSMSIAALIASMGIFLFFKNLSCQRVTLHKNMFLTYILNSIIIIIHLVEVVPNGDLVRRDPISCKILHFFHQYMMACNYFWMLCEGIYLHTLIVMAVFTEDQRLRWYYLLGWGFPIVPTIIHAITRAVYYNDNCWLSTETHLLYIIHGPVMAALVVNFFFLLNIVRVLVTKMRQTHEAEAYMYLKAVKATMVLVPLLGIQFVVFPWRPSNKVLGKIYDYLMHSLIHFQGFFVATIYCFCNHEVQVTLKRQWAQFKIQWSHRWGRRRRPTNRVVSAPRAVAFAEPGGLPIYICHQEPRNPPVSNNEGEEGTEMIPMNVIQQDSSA

T3: human calcitonin receptor (human, UniProt P30988 25-474)
T3 construct: whole, on cells; Membranes of stably transfected cells; also called hCTR; hCT
T3 sequence (looked up): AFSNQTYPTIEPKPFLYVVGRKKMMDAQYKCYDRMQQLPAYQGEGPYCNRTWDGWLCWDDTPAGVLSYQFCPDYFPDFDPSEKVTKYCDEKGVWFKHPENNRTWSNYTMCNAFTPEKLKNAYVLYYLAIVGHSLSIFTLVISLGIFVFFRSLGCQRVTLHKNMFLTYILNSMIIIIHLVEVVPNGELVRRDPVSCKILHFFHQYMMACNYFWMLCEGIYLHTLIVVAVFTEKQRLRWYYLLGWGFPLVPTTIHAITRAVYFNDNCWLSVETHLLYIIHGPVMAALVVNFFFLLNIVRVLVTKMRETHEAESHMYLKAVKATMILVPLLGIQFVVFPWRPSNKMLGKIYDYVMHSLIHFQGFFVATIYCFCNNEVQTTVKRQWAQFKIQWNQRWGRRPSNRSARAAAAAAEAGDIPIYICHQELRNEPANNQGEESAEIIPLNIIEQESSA


Tests used:
[1] = molecular target: T1, rat amylin receptor (rat calcitonin …); experiment: SPA competition with 125I-rat amylin on membranes of BHK tk'ts 13 cells with rat calcitonin receptor + rat RAMP3 (Assay VI)
rat calcitonin receptor [2] = molecular target: T2, rat calcitonin receptor; experiment: SPA competition with 125I-calcitonin on membranes of BHK tk'ts 13 cells with rat calcitonin receptor (Assay VIII)
[3] = molecular target: T3, human calcitonin receptor; experiment: ratio of IC50 on human calcitonin receptor to IC50 on human amylin receptor (reference m42), SPA competition
In short: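 Membranes (35 ng/μL final) + SPA beads, 50 mM Hepes pH 7.4 buffer with 1 mM CaCl2, 5 mM MgCl₂, 0.1% OA, 0.02% Tween20; 120 min, 25° C, shaking; centrifuged, counted; IC₅₀ by one-site binding competition.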

rat calcitonin receptor [4] = molecular target: T2, rat calcitonin receptor; experiment: ratio of IC50 on rat calcitonin receptor to IC50 on rat amylin receptor (reference m40)

Binder	IC50 [1] [nM]	IC50 (rat calcitonin receptor [2]) [nM]	Ratio hCT/hAmylin binding [3]	Ratio rCT/rAmylin binding (rat calcitonin receptor [4])
K([γGlu-C20 diacid])CNTATCATQRLAAFLRHSSPNFGAIPSSTNVGHNTY-NH2 (disulfide 2-7; N-terminus assumed; SMILES CC[C@H](C)[C@H](NC(=O)[C@H](C)NC(=O)CNC(=O)[C@H](Cc1ccccc1)NC(=O)[C@H](CC(N)=O)NC(=O)[C@@H]1CCCN1C(=O)[C@H](CO)NC(=O)[C@H](CO)NC(=O)[C@H](Cc1c[nH]cn1)NC(=O)[C@H](CCCNC(=N)N)NC(=O)[C@H](CC(C)C)NC(=O)[C@H](Cc1ccccc1)NC(=O)[C@H](C)NC(=O)[C@H](C)NC(=O)[C@H](CC(C)C)NC(=O)[C@H](CCCNC(=N)N)NC(=O)[C@H](CCC(N)=O)NC(=O)[C@@H](NC(=O)[C@H](C)NC(=O)[C@@H]1CSSC[C@H](NC(=O)[C@@H](N)CCCCNC(=O)CC[C@H](NC(=O)CCCCCCCCCCCCCCCCCCC(=O)O)C(=O)O)C(=O)N[C@@H](CC(N)=O)C(=O)N[C@@H]([C@@H](C)O)C(=O)N[C@@H](C)C(=O)N[C@@H]([C@@H](C)O)C(=O)N1)[C@@H](C)O)C(=O)N1CCC[C@H]1C(=O)N[C@@H](CO)C(=O)N[C@@H](CO)C(=O)N[C@H](C(=O)N[C@@H](CC(N)=O)C(=O)N[C@H](C(=O)NCC(=O)N[C@@H](Cc1c[nH]cn1)C(=O)N[C@@H](CC(N)=O)C(=O)N[C@H](C(=O)N[C@@H](Cc1ccc(O)cc1)C(N)=O)[C@@H](C)O)C(C)C)[C@@H](C)O, Synthetic acylated analogue of human amylin; also called compound 93)	1.58	131	101	83.2
K([γGlu-C20 diacid])CNTATCATQRLAEFLRHSSPNFGAIPSSTNVGRETY-NH2 (disulfide 2-7; N-terminus assumed; SMILES CC[C@H](C)[C@H](NC(=O)[C@H](C)NC(=O)CNC(=O)[C@H](Cc1ccccc1)NC(=O)[C@H](CC(N)=O)NC(=O)[C@@H]1CCCN1C(=O)[C@H](CO)NC(=O)[C@H](CO)NC(=O)[C@H](Cc1c[nH]cn1)NC(=O)[C@H](CCCNC(=N)N)NC(=O)[C@H](CC(C)C)NC(=O)[C@H](Cc1ccccc1)NC(=O)[C@H](CCC(=O)O)NC(=O)[C@H](C)NC(=O)[C@H](CC(C)C)NC(=O)[C@H](CCCNC(=N)N)NC(=O)[C@H](CCC(N)=O)NC(=O)[C@@H](NC(=O)[C@H](C)NC(=O)[C@@H]1CSSC[C@H](NC(=O)[C@@H](N)CCCCNC(=O)CC[C@H](NC(=O)CCCCCCCCCCCCCCCCCCC(=O)O)C(=O)O)C(=O)N[C@@H](CC(N)=O)C(=O)N[C@@H]([C@@H](C)O)C(=O)N[C@@H](C)C(=O)N[C@@H]([C@@H](C)O)C(=O)N1)[C@@H](C)O)C(=O)N1CCC[C@H]1C(=O)N[C@@H](CO)C(=O)N[C@@H](CO)C(=O)N[C@H](C(=O)N[C@@H](CC(N)=O)C(=O)N[C@H](C(=O)NCC(=O)N[C@@H](CCCNC(=N)N)C(=O)N[C@@H](CCC(=O)O)C(=O)N[C@H](C(=O)N[C@@H](Cc1ccc(O)cc1)C(N)=O)[C@@H](C)O)C(C)C)[C@@H](C)O, Synthetic acylated analogue of human amylin)	1.06	86.1	28.5	81.1
K([γGlu-C20 diacid])CNTATCATQRLAAFLRHSSPNFGAIPSSTNVGPNTY-NH2 (disulfide 2-7; N-terminus assumed; SMILES CC[C@H](C)[C@H](NC(=O)[C@H](C)NC(=O)CNC(=O)[C@H](Cc1ccccc1)NC(=O)[C@H](CC(N)=O)NC(=O)[C@@H]1CCCN1C(=O)[C@H](CO)NC(=O)[C@H](CO)NC(=O)[C@H](Cc1c[nH]cn1)NC(=O)[C@H](CCCNC(=N)N)NC(=O)[C@H](CC(C)C)NC(=O)[C@H](Cc1ccccc1)NC(=O)[C@H](C)NC(=O)[C@H](C)NC(=O)[C@H](CC(C)C)NC(=O)[C@H](CCCNC(=N)N)NC(=O)[C@H](CCC(N)=O)NC(=O)[C@@H](NC(=O)[C@H](C)NC(=O)[C@@H]1CSSC[C@H](NC(=O)[C@@H](N)CCCCNC(=O)CC[C@H](NC(=O)CCCCCCCCCCCCCCCCCCC(=O)O)C(=O)O)C(=O)N[C@@H](CC(N)=O)C(=O)N[C@@H]([C@@H](C)O)C(=O)N[C@@H](C)C(=O)N[C@@H]([C@@H](C)O)C(=O)N1)[C@@H](C)O)C(=O)N1CCC[C@H]1C(=O)N[C@@H](CO)C(=O)N[C@@H](CO)C(=O)N[C@H](C(=O)N[C@@H](CC(N)=O)C(=O)N[C@H](C(=O)NCC(=O)N1CCC[C@H]1C(=O)N[C@@H](CC(N)=O)C(=O)N[C@H](C(=O)N[C@@H](Cc1ccc(O)cc1)C(N)=O)[C@@H](C)O)C(C)C)[C@@H](C)O, Synthetic acylated analogue of human amylin; also called compound 94)	0.397	111	46.3	280
K([γGlu-C20 diacid])CNTATCATQRLADFLRHSSPNFGAIPSSTNVGPRTY-NH2 (disulfide 2-7; N-terminus assumed; SMILES CC[C@H](C)[C@H](NC(=O)[C@H](C)NC(=O)CNC(=O)[C@H](Cc1ccccc1)NC(=O)[C@H](CC(N)=O)NC(=O)[C@@H]1CCCN1C(=O)[C@H](CO)NC(=O)[C@H](CO)NC(=O)[C@H](Cc1c[nH]cn1)NC(=O)[C@H](CCCNC(=N)N)NC(=O)[C@H](CC(C)C)NC(=O)[C@H](Cc1ccccc1)NC(=O)[C@H](CC(=O)O)NC(=O)[C@H](C)NC(=O)[C@H](CC(C)C)NC(=O)[C@H](CCCNC(=N)N)NC(=O)[C@H](CCC(N)=O)NC(=O)[C@@H](NC(=O)[C@H](C)NC(=O)[C@@H]1CSSC[C@H](NC(=O)[C@@H](N)CCCCNC(=O)CC[C@H](NC(=O)CCCCCCCCCCCCCCCCCCC(=O)O)C(=O)O)C(=O)N[C@@H](CC(N)=O)C(=O)N[C@@H]([C@@H](C)O)C(=O)N[C@@H](C)C(=O)N[C@@H]([C@@H](C)O)C(=O)N1)[C@@H](C)O)C(=O)N1CCC[C@H]1C(=O)N[C@@H](CO)C(=O)N[C@@H](CO)C(=O)N[C@H](C(=O)N[C@@H](CC(N)=O)C(=O)N[C@H](C(=O)NCC(=O)N1CCC[C@H]1C(=O)N[C@@H](CCCNC(=N)N)C(=O)N[C@H](C(=O)N[C@@H](Cc1ccc(O)cc1)C(N)=O)[C@@H](C)O)C(C)C)[C@@H](C)O, Synthetic acylated analogue of human amylin)	0.504	58.5	151	116
K([γGlu-C20 diacid])CNTATCATQRLADFLRHSSPNFGAIPSSTNVGPETY-NH2 (disulfide 2-7; N-terminus assumed; SMILES CC[C@H](C)[C@H](NC(=O)[C@H](C)NC(=O)CNC(=O)[C@H](Cc1ccccc1)NC(=O)[C@H](CC(N)=O)NC(=O)[C@@H]1CCCN1C(=O)[C@H](CO)NC(=O)[C@H](CO)NC(=O)[C@H](Cc1c[nH]cn1)NC(=O)[C@H](CCCNC(=N)N)NC(=O)[C@H](CC(C)C)NC(=O)[C@H](Cc1ccccc1)NC(=O)[C@H](CC(=O)O)NC(=O)[C@H](C)NC(=O)[C@H](CC(C)C)NC(=O)[C@H](CCCNC(=N)N)NC(=O)[C@H](CCC(N)=O)NC(=O)[C@@H](NC(=O)[C@H](C)NC(=O)[C@@H]1CSSC[C@H](NC(=O)[C@@H](N)CCCCNC(=O)CC[C@H](NC(=O)CCCCCCCCCCCCCCCCCCC(=O)O)C(=O)O)C(=O)N[C@@H](CC(N)=O)C(=O)N[C@@H]([C@@H](C)O)C(=O)N[C@@H](C)C(=O)N[C@@H]([C@@H](C)O)C(=O)N1)[C@@H](C)O)C(=O)N1CCC[C@H]1C(=O)N[C@@H](CO)C(=O)N[C@@H](CO)C(=O)N[C@H](C(=O)N[C@@H](CC(N)=O)C(=O)N[C@H](C(=O)NCC(=O)N1CCC[C@H]1C(=O)N[C@@H](CCC(=O)O)C(=O)N[C@H](C(=O)N[C@@H](Cc1ccc(O)cc1)C(N)=O)[C@@H](C)O)C(C)C)[C@@H](C)O, Synthetic acylated analogue of human amylin)	0.3	18.6	16.7	62
